Test system: G-protein beta/gamma subunits (Gβγ)

Row | Substance | fold stimulation of 32P incorporation into PIP3 in the presence of Gβγ over that in its absence | pmol incorporation of 32P into PIP3, Plus Gβγ [pmol] | fold stimulation of 32P incorporation into PIP3 in the presence of Gβγ over basal activity
1 | p110g/SVP4b heterodimer (GFP-fusion tagged p110gamma co-expressed with SVP4b in SF21 cells) | a 9.4 fold stimulation of ^32P incorporation into PIP3 over that seen in the absence of Gβγ was seen with the p110g/SVP4b heterodimer | 10.3 | 
2 | p110g/p101 heterodimer (GFP-fusion tagged p110gamma co-expressed with full length p101 in SF21 cells) |  | 13.5 | the p101/p101 heterodimer produced a 4.6 fold stimulation over basal activity in the presence of Gβγ

— US20010023068
